Laboratory results published in patent US20250320281A1.

Legend:
Test in all cases: cell-based or functional assay
[1] = target: HIV-1 Env of isolate MGRM-C-015 (HIV-1)
[2] = target: HIV-1 Env of isolate MGRM-C-017 (HIV-1)
[3] = target: HIV-1 Env of isolate MGRM-C-026 (HIV-1)
[4] = target: HIV-1 Env of isolate MGRM-C-025 (HIV-1)
[5] = target: HIV-1 Env of isolate MGRM-C-023 (HIV-1)
[6] = target: HIV-1 Env of isolate MGRM-C-019 (HIV-1)
[7] = target: HIV-1 Env of isolate MGRM-C-027 (HIV-1)
[8] = target: HIV-1 Env of isolate MGRM-C-028 (HIV-1)
[9] = target: HIV-1 Env of isolate MGRM-C-022 (HIV-1)
[10] = target: HIV-1 Env of isolate MGRM-C-014 (HIV-1)
[11] = target: HIV-1 Env of isolate MGRM-C-024 (HIV-1)
[12] = target: HIV-1 Env of isolate MGRM-C-020 (HIV-1)

Sequence of PGT-144 (antibody) (VH): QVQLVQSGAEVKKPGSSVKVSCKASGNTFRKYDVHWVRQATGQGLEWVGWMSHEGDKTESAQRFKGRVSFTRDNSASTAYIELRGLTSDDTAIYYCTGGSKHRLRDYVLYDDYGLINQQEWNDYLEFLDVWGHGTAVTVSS
Sequence of PGT-144 (antibody) (VL): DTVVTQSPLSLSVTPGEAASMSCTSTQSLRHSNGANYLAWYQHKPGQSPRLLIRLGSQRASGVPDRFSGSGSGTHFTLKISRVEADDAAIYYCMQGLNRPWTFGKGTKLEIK
Sequence of PGT-145 (antibody) (VH): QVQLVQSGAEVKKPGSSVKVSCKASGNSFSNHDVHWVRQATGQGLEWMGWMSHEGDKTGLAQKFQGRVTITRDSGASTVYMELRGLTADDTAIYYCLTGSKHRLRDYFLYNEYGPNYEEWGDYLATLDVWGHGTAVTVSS
Sequence of PGT-145 (antibody) (VL): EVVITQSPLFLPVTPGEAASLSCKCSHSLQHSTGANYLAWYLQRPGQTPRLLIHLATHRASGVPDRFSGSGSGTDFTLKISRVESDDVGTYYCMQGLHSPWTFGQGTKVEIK
Sequence of PGT-141 (antibody) (VH): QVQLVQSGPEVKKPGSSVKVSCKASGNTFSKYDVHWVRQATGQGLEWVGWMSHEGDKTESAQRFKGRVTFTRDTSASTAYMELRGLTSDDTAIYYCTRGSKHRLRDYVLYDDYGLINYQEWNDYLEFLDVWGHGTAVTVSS
Sequence of PGT-141 (antibody) (VL): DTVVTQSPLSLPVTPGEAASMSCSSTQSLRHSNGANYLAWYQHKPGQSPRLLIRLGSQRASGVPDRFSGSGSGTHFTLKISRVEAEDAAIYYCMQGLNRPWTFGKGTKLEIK
Sequence of PGT-143 (antibody) (VH): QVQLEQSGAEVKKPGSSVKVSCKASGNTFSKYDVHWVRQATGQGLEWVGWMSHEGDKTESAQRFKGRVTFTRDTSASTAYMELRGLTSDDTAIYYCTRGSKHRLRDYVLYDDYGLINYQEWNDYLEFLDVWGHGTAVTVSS
Sequence of PGT-143 (antibody) (VL): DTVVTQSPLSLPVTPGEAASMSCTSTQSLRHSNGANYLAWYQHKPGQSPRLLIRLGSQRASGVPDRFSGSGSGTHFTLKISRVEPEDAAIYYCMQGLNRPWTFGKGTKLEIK

Substance | IC50 (µg/mL), pseudovirus neutralization [1] | IC50 (µg/mL), pseudovirus neutralization [2] | IC50 (µg/mL), pseudovirus neutralization [3] | IC50 (µg/mL), pseudovirus neutralization [4] | IC50 (µg/mL), pseudovirus neutralization [5] | IC50 (µg/mL), pseudovirus neutralization [6] | IC50 (µg/mL), pseudovirus neutralization [7] | IC50 (µg/mL), pseudovirus neutralization [8] | IC50 (µg/mL), pseudovirus neutralization [9] | IC50 (µg/mL), pseudovirus neutralization [10] | IC50 (µg/mL), pseudovirus neutralization [11] | IC50 (µg/mL), pseudovirus neutralization [12]
PGT-143 (antibody) | 0.085 µg/mL | 5.17 µg/mL | > 50 µg/mL | 0.336 µg/mL | 0.148 µg/mL | 0.004 µg/mL | 0.598 µg/mL | 12.4 µg/mL | 0.103 µg/mL | 8.81 µg/mL | 0.05 µg/mL | 0.797 µg/mL
PGT-145 (antibody) | 0.12 µg/mL | > 50 µg/mL | > 50 µg/mL | 0.044 µg/mL | 0.201 µg/mL | 0.005 µg/mL | 0.095 µg/mL | 0.099 µg/mL | 0.492 µg/mL | 5.82 µg/mL | 0.174 µg/mL | 0.712 µg/mL
PGT-141 (antibody) | 0.033 µg/mL | 4.02 µg/mL | > 50 µg/mL | 0.247 µg/mL | 0.153 µg/mL | 0.008 µg/mL | 3.27 µg/mL | 13.8 µg/mL | 0.381 µg/mL | 11.8 µg/mL | 0.101 µg/mL | 1.34 µg/mL
PGT-144 (antibody) | 0.236 µg/mL | 23 µg/mL | > 50 µg/mL | 17.6 µg/mL | 0.38 µg/mL | 0.513 µg/mL | > 50 µg/mL | > 50 µg/mL | 2.58 µg/mL | > 50 µg/mL | 2.06 µg/mL | 1.29 µg/mL
